This note sets out measurements from patent US10774132B2, “Ultralong complementarity determining regions and uses thereof” (THE SCRIPPS RESEARCH INSTITUTE, priority 2012, dated 2020).

The test system of data set [1] is Human mPB CD34+ cells. Nature of the data set: Proliferative activity on human granulocyte progenitors (flow cytometry). In kind it is cell-based. The settings on record: 7 days, flow cytometry. How it is done:
Human mPB CD34^+ cells were purchased from AllCells. Cells were resuspended in HSC expansion medium (StemSpan SFEM, StemCell Technologies) supplemented with 1× antibiotics and the following recombinant human cytokines: thrombopoietin, IL6, Flt3 ligand, and stem cell factor (100 ng/mL, R & D Systems), then plated in 96-well plates (1000 cells per well), with varied concentrations of BLV1H12-bGCSF fusion antibodies. Cells were cultured for 7 days at 37° C. in a 5% CO2 incubator, then analyzed by flow cytometry to measure cell number and expression of CD45ra and CD41. Cells were stained in staining medium (HBSS supplemented with 2% FBS and 2 mM EDTA) at 4° C. for 1 h with PECy7 anti-CD45ra and eFluor 450 anti-CD41 (eBiosciences), then washed with staining medium and analyzed. Multicolor analysis for cell phenotyping was performed on a LSR II flow cytometer (Becton Dickinson). FIGS. 10A-10E and Tables 9-10 show the human granulocyte progenitor cell proliferative activities of the Ab-GCSF fusion antibodies.
Background: Flow cytometry measures light scatter and fluorescence of single cells or particles in a stream.

In data set [2] the test system is Mouse NFS-60 cells. Nature of the data set: Proliferation assay on mouse NFS-60 cells (AlamarBlue). The data set is classed as cell-based. The settings on record: 72 hours. How it is done:
Mouse NFS-60 cells were obtained from American Type Culture Collection (ATCC), VA, and cultured in RPMI-1640 medium supplemented with 10% fetal bovine serum (FBS), 0.05 mM 2-mercapoethanol and 62 ng/ml human macrophage colony stimulating factor (M-CSF). For proliferation assay, mouse NFS-60 cells were washed three times with RPMI-1640 medium and resuspended in RPMI-1640 medium with 10% FBS and 0.05 mM 2-mercapoethanol at a density of 1.5×10^5 cells/ml. In 96-well plates, 100 μl of cell suspension was added into each well, followed by the addition of varied concentrations of bGCSF, BLV1H12 antibody, and the immunoglobulin constructs described herein, Equal volume of PBS buffer was added into the control wells. The plates were incubated at 37° C. in a 5% CO2 incubator for 72 hours. Cells were then treated with AlamarBlue (Invitrogen) ( 1/10 volume of cell suspension) for 4 hours at 37° C. Fluorescence at 595 nm for each well was read to indicate the cell viability.
Background: Alamar Blue is a resazurin reagent that responds to reducing activity.

Data set [3] addresses T1, CXCR1 (Homo sapiens, UniProt P25024).
T1 construct: host or cells: U2OS
T1 sequence (P25024 1-350): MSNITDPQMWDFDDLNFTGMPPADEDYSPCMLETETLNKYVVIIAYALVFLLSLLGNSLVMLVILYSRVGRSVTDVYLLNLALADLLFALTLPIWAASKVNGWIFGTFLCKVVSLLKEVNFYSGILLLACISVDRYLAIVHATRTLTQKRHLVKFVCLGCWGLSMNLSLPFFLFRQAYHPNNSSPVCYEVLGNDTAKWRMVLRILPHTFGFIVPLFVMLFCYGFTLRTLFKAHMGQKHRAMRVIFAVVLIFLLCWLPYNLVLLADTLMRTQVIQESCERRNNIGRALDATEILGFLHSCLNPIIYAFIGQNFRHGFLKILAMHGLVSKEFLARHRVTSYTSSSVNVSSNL
Nature of the data set: Flow cytometry binding to CXCR1-U2OS cells. How it is done: (§1) Briefly, a cell line expressing functionally validated CXCR1 derived from U2OS cells was obtained from DiscoveRx and cultured per manufacturer's instructions (Cat #93-0226C3, DiscoveRx Corporation, Freemont, Calif.). The parental cell line U2OS was obtained from ATCC and cultured under the same conditions as the CXCR1 cells. Cell culture supernatants from Example 2 above were then tested for binding to cells by flow cytometry. The adherent U2OS or CXCR1-U2OS cells were dissociated with Accutase (Innovative Cell Technologies, Inc., San Diego, Calif.), neutralized with an equal volume of media containing 10% serum, centrifuged at 1000 g, and resuspended in PBS with 2% BSA. Next, cells were dispensed into microtiter plates to achieve between 30,000 to 300,000 cells per well, centrifuged again, and resuspended in cell culture supernatant containing expressed IgG, or a dilution of IgG-containing cell culture supernatant. A fluorescent-conjugated anti-Human Fc antibody was used to detect binding of the expressed BLV1H12-IL8 fusion proteins to cells.

Data set [4] deals with Parental U2OS. As to the kind of experiment: Flow cytometry binding to parental U2OS cells. The settings on record: cell culture supernatant. How it is done: as §1
The subject of data set [5] is untransfected HEK293A cells. Nature of the data set: Immunocytometric analysis, untransfected HEK293A cells. In kind it is binding, human. The settings on record: 10 μg/ml antibody. The protocol:
(§2) Additionally, binding of the chimeric recombinant antibodies to BVDV antigens was evaluated by immunocytometric analysis of transfected human embryonic kidney (HEK) 293A cells (Invitrogen), as previously described (see, e.g., Njongmeta et al. (2012) Vaccine 30:1624-1635). Briefly, HEK 293A monolayers grown in 6-well tissue culture plates were transfected with 2 µg/well of plasmid (pCDNA3.3, Invitrogen) encoding BVDV antigens (N^pro, E2, or non-structural proteins NS2-3) using Lipofectamine 2000 reagent (Invitrogen), and incubated for 48 hr at 37° C. with 5% CO2. The monolayers were fixed with ice-cold 100% methanol for 10 minutes, rinsed with PBS, and after blocking for 1 hr with PBS containing 5% fetal bovine serum (blocking buffer), the monolayers were incubated at room temperature for 1 hr with 10 μg/ml of a mouse anti-FLAG M2-alkaline phosphatase (AP)-conjugate (Sigma) in blocking buffer or 10 μg/ml of the chimeric recombinant antibodies (H12 or B8). […] Following washes in blocking buffer, the AP activity in all the wells was detected using Fast Red AS-MX substrate (Sigma). […]

Data set [6] has as its system NS2-3 non-structural proteins of BVDV. Nature of the data set: Immunocytometric analysis of HEK 293A cells transfected with BVDV antigens. The data set is classed as binding, bovine viral diarrhea virus. The note with it: 10 μg/ml antibody. How it is done: as §2
Data set [7] has as its system mice neutrophils. As to the kind of experiment: Neutrophil counts in mice, 10th day after injection. In kind it is in vivo. The note with it: blood stained and counted at the 10th day post-injection. How it is done: On the 10th day after injection of BLV1H12-bGCSF fusion antibodies into mice for PK study, blood samples were drawn from the mice and stained using the Diff Quick Staining Kit (Thermo Fisher Scientific, IL). Neutrophils and white blood cells were counted under microscope and the percentages of neutrophils were analyzed. FIGS. 12A-12B and Table 12 show proliferative activities of BLV1H12-bGCSF fusion antibodies on mice neutrophils that are blood stained and counted at the 10th day post-injection.

Data set [8] is described as follows: Pharmacokinetics in mice (ELISA of blood samples). In kind it is in vivo. The note with it: 70 μg injected, BALB/c mice. How it is done: For PK study in mice, 70 μg of the immunoglobulin constructs described herein were injected into 3 BALB/c mice per group. Blood samples were drawn from time 0 to 14 days with extended intervals and analyzed by ELISA using anti-human IgG Fc antibody with horseradish peroxidase (HRP) labeled (KPL) and anti-6×His antibody (“6×His” disclosed as SEQ ID NO: 511) with HRP labeled (Clontech). Data were normalized by taking maximal concentration at the first time point (30 min).
For orientation: ELISA stands for enzyme-linked immunosorbent assay.

B1: hGCSF: human G-CSF (protein, UniProt P09919 31-207, looked up)
Granulocyte …: TPLGPASSLPQSFLLKCLEQVRKIQGDGAALQEKLVSECATYKLCHPEELVLLGHSLGIPWAPLSSCPSQALQLAGCLSQLHSGLFLYQGLLQALEGISPELGPTLDTLQLDVADFATTIWQQMEELGMAPALQPTQGAMPAFASAFQRRAGGVLVASHLQSFLEVSYRVLRHLAQP
As for B1, in data set [1] (4.11523 ng/mL), the “Number of CD45RA-CD41-” value is on record as 5900. Moreover, the “F.I. (fluorescence at 595 nm, AlamarBlue, cell viability)” value came out at 1266.554 in data set [2] (0.09145 ng/mL); 1478.287 in data set [2] (0.27435 ng/mL); 1752.216 in data set [2] (0.82305 ng/mL); 2224.028 in data set [2] (2.46914 ng/mL); 2587.222 in data set [2] (7.40741 ng/mL); 2751.249 in data set [2] (22.22222 ng/mL). Besides, the “F.I. (fluorescence at 595 nm, AlamarBlue, cell viability)” value is on record as 2815.37 in data set [2] (66.66667 ng/mL) and 2948.509 in data set [2] (200 ng/mL).

B2: BLV1H12-IL8: human IL-8 (amino acids 26-99) replacing the knob domain of BLV1H12 CDR3H, SEQ ID NO: 38 (antibody)
heavy: QVQLRESGPSLVKPSQTLSLTCTASGFSLSDKAVGWVRQAPGKALEWLGSIDTGGNTGYNPGLKSRLSITKDNSKSQVSLSVSSVTTEDSATYYCTSVHQETKKYQSPRSAKELRCQCIKTYSKPFHPKFIKELRVIESGPHCANTEIIVKLSDGRELCLDPKENWVQRVVEKFLKRAENSGSGSYTYNYEWHVDVWGQGLLVTV
Take B2: the “specificity (ratio of median fluorescence of CXCR1-U2OS cells versus U2OS parental cells)” value in data set [3] is reported as “has specificity for CXCR1”. Moreover, the “Median Arbitrary Fluorescence Units (IgG binding)” value is 707 AFU in data set [3] (CXCR1-U2OS cells, cell culture supernatant, flow cytometry) and 76 AFU in data set [4].

B3: H12 (protein, listed as Bos taurus)
chain: CVIVHQKTTQQSSCPAGFRDCVACTPGPESCCRSGCDGARRRVGLRYFFDSTSPITTYTYEHHIDAW
modifications: H12
As for B3, the “binding to untransfected cells” value in data set [5] is “weakly bound”. The “binding to HEK293A cells transfected with NS2-3 of BVDV” value in data set [6] was “strongly binds”.

B4: bGCSF: bovine G-CSF (protein, listed as Bos taurus)
chain: TPLGPARSLPQSFLLKCLEQVRKIQADGAELQERLCAAHKLCHPEELMLLRHSLGIPQAPLSSCSSQSLQLTSCLNQLHGGLFLYQGLLQALAGISPELAPTLDTLQLDVTDFATNIWLQMEDLGAAPAVQPTQGAMPTFTSAFQRRAGGVLVASQLHRFLELAYRGLRYLAEP
modifications: bGCSF
notes: bovine G-CSF
B4: the “Percentage of Neutrophil” value in data set [7] came out at 16.48. Further, the “Number of CD45RA-CD41-” value is given as 7354 in data set [1] (0.55886 ng/mL); 9776 in data set [1] (1.67657 ng/mL); 12700 in data set [1] (5.02972 ng/mL); 13200 in data set [1] (15.08916 ng/mL); 13700 in data set [1] (45.26749 ng/mL); 13300 in data set [1] (135.80247 ng/mL). Further, the “Number of CD45RA-CD41-” value in data set [1] (407.40741 ng/mL) was 13700; in data set [1] (1222.22222 ng/mL), 14100; in data set [1] (3666.66667 ng/mL), 13100; in data set [1] (11000 ng/mL) it was 13800. Further, the “F.I. (fluorescence at 595 nm, AlamarBlue, cell viability)” value in data set [2] (0.09145 ng/mL) came out at 1214; in data set [2] (0.27435 ng/mL) it was 1360.925; in data set [2] (0.82305 ng/mL) it was 1761; in data set [2] (2.46914 ng/mL), 2101; in data set [2] (7.40741 ng/mL) it was 2405; in data set [2] (22.22222 ng/mL) it was 2646. Also, the “F.I. (fluorescence at 595 nm, AlamarBlue, cell viability)” value was found to be 2812.098 in data set [2] (66.66667 ng/mL) and 3087.144 in data set [2] (200 ng/mL). For the same molecule, the “Percentage (blood level normalized to first time point, 30 min)” value came to 100.00% in data set [8] (0.5 hour); 79.52% in data set [8] (1 hour); 56.81% in data set [8] (3 hour); 14.94% in data set [8] (6 hour); 4.08% in data set [8] (24 hour); 0.00% in data set [8] (48 hour). Also, the “Percentage (blood level normalized to first time point, 30 min)” value in data set [8] (72 hour) stood at 0.00%.
